T1: PDZD7_3, Q9H5P4
T1 sequence (Q9H5P4 857-944, limits assumed, looked up): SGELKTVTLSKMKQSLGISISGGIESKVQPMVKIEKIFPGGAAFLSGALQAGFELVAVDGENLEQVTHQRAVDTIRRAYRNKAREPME

T2: MPDZ_12, O75970
T2 sequence (O75970 1857-1958, limits assumed, looked up): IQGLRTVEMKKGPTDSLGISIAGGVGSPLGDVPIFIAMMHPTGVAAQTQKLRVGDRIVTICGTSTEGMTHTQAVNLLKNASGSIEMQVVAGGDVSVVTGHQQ

T3: APBA2_1, Q99767
T3 sequence (Q99767 563-664, limits assumed, looked up): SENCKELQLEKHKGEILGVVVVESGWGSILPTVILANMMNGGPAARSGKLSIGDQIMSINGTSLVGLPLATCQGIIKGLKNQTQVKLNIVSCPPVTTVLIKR

T4: SNTG1, Q9NSN8
T4 sequence (Q9NSN8 52-150, limits assumed, looked up): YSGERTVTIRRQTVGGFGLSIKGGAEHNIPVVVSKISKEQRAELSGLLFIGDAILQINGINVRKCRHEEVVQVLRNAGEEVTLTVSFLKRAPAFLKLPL

T5: NHERF3_3, Q5T2W1
T5 sequence (Q5T2W1 238-333, limits assumed, looked up): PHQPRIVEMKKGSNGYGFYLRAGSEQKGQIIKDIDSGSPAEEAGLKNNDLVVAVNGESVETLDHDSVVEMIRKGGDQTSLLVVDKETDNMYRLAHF

T6: LNX2_2, Q8N448
T6 sequence (Q8N448 334-432, limits assumed, looked up): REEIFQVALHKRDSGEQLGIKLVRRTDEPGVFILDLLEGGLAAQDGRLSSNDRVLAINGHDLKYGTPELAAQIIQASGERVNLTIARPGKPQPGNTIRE

T7: APBA1_2, Q02410
T7 sequence (Q02410 742-832, limits assumed, looked up): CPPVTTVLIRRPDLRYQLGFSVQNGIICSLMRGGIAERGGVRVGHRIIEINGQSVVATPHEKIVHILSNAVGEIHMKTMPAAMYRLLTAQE

T8: TIAM2, Q8IVF5
T8 sequence (Q8IVF5 885-986, limits assumed, looked up): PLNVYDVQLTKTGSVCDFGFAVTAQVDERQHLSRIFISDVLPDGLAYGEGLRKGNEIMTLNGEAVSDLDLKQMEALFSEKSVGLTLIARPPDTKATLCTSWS

T9: DVL3, Q92997
T9 sequence (Q92997 244-331, limits assumed, looked up): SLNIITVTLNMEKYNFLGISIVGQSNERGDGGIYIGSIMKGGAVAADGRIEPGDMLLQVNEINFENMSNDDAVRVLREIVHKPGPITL

T10: HTRA4, P83105
T10 sequence (P83105 378-476, limits assumed, looked up): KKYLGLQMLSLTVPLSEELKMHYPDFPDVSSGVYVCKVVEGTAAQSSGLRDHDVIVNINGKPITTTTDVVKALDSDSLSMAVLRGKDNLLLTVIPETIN

T11: GRIP1_7, Q9Y3R0
T11 sequence (Q9Y3R0 999-1096, limits assumed, looked up): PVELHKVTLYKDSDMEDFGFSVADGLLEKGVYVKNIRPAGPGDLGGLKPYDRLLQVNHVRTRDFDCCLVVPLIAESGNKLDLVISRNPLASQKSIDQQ

T12: ARHGEF11, O15085
T12 sequence (O15085 42-136, limits assumed, looked up): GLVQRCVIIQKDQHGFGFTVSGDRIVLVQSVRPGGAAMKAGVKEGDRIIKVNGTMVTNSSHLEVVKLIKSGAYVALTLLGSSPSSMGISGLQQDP

T13: MPP2, Q14168
T13 sequence (Q14168 180-250, limits assumed, looked up): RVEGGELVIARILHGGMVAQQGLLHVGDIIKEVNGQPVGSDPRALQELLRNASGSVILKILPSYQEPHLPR

T14: MPP7, Q5T2T1
T14 sequence (Q5T2T1 134-230, limits assumed, looked up): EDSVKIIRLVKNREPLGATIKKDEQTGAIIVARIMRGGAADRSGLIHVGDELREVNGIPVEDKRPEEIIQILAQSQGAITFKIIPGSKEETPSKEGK


Each binder was assayed against T1, PDZD7_3, Q9H5P4 (assay: holdup assay). Conditions: plain residues with an end cap or a label only (N-terminal biotin on a linker: ado-ado).
Design: key: below the threshold = too weak to quantify, mostly under pKd 3.1 to 4

Row | pKd | Binder
1 | below the threshold | EALLQMESVA [CAVIN3, Q969G5]

Each binder was assayed against LIMK2, P53671 (assay: holdup assay). Conditions: plain residues with an end cap or a label only (N-terminal biotin on a linker: ado-ado).
LIMK2, P53671, sequence (P53671 143-248): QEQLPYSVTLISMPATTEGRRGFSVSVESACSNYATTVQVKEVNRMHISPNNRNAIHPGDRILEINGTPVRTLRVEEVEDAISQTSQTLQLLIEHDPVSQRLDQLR
Design: key: below the threshold = too weak to quantify, mostly under pKd 3.1 to 4

Row | pKd | Binder
2 | below the threshold | EALLQMESVA [CAVIN3, Q969G5]

What follows are binders tested against T2, MPDZ_12, O75970 (assay: holdup assay). Conditions: plain residues with an end cap or a label only (N-terminal biotin on a linker: ado-ado).
Design: key: below the threshold = too weak to quantify, mostly under pKd 3.1 to 4

Row | pKd | Binder
3 | below the threshold | EALLQMESVA [CAVIN3, Q969G5]

What follows are binders tested against T3, APBA2_1, Q99767 (assay: holdup assay). Conditions: plain residues with an end cap or a label only (N-terminal biotin on a linker: ado-ado).
Design: key: below the threshold = too weak to quantify, mostly under pKd 3.1 to 4

Row | pKd | Binder
4 | below the threshold | EALLQMESVA [CAVIN3, Q969G5]

What follows are binders tested against Inadl_3, Q8NI35 (assay: holdup assay). Conditions: plain residues with an end cap or a label only (N-terminal biotin on a linker: ado-ado).
Inadl_3, Q8NI35, sequence (Q8NI35 359-469): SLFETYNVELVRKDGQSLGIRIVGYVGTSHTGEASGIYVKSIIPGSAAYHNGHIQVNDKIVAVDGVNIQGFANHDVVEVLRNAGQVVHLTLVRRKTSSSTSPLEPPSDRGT
Design: key: below the threshold = too weak to quantify, mostly under pKd 3.1 to 4

Row | pKd | Binder
5 | below the threshold | EALLQMESVA [CAVIN3, Q969G5]

The binders below were run against T4, SNTG1, Q9NSN8 (assay: holdup assay). Conditions: plain residues with an end cap or a label only (N-terminal biotin on a linker: ado-ado).
Design: key: below the threshold = too weak to quantify, mostly under pKd 3.1 to 4

Row | pKd | Binder
6 | below the threshold | EALLQMESVA [CAVIN3, Q969G5]

The binders below were run against HTRA2, O43464 (assay: holdup assay). Conditions: plain residues with an end cap or a label only (N-terminal biotin on a linker: ado-ado).
HTRA2, O43464, sequence (O43464 355-458): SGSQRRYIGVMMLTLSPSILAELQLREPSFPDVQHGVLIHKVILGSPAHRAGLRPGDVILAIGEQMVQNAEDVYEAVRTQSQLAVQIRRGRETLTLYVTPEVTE
Design: key: below the threshold = too weak to quantify, mostly under pKd 3.1 to 4

Row | pKd | Binder
7 | below the threshold | EALLQMESVA [CAVIN3, Q969G5]

These binders were tested against T5, NHERF3_3, Q5T2W1 (assay: holdup assay). Conditions: plain residues with an end cap or a label only (N-terminal biotin on a linker: ado-ado).
Design: key: below the threshold = too weak to quantify, mostly under pKd 3.1 to 4

Row | pKd | Binder
8 | below the threshold | EALLQMESVA [CAVIN3, Q969G5]

The binders below were run against T6, LNX2_2, Q8N448 (assay: holdup assay). Conditions: plain residues with an end cap or a label only (N-terminal biotin on a linker: ado-ado).
Design: key: below the threshold = too weak to quantify, mostly under pKd 3.1 to 4

Row | pKd | Binder
9 | below the threshold | EALLQMESVA [CAVIN3, Q969G5]

These binders were tested against ARHGEF12, Q9NZN5-2 (assay: holdup assay). Conditions: plain residues with an end cap or a label only (N-terminal biotin on a linker: ado-ado).
ARHGEF12, Q9NZN5-2, sequence (Q9NZN5 other isoform, or with tags, fused parts or gaps): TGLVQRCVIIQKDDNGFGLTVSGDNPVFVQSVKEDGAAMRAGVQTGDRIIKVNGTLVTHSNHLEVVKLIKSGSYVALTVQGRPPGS
Design: key: below the threshold = too weak to quantify, mostly under pKd 3.1 to 4

Row | pKd | Binder
10 | 3.63 | EALLQMESVA [CAVIN3, Q969G5]

These binders were tested against T7, APBA1_2, Q02410 (assay: holdup assay). Conditions: plain residues with an end cap or a label only (N-terminal biotin on a linker: ado-ado).
Design: key: below the threshold = too weak to quantify, mostly under pKd 3.1 to 4

Row | pKd | Binder
11 | 3.5 | EALLQMESVA [CAVIN3, Q969G5]

These binders were tested against T8, TIAM2, Q8IVF5 (assay: holdup assay). Conditions: plain residues with an end cap or a label only (N-terminal biotin on a linker: ado-ado).
Design: key: below the threshold = too weak to quantify, mostly under pKd 3.1 to 4

Row | pKd | Binder
12 | 4.12 | EALLQMESVA [CAVIN3, Q969G5]

The binders below were run against SCRIB_1, Q14160 (assay: holdup assay). Conditions: plain residues with an end cap or a label only (N-terminal biotin on a linker: ado-ado).
SCRIB_1, Q14160, sequence (Q14160 718-814): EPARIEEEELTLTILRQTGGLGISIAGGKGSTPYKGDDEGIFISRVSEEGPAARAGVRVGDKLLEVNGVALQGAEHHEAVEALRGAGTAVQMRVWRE
Design: key: below the threshold = too weak to quantify, mostly under pKd 3.1 to 4

Row | pKd | Binder
13 | 3.56 | EALLQMESVA [CAVIN3, Q969G5]

These binders were tested against T9, DVL3, Q92997 (assay: holdup assay). Conditions: plain residues with an end cap or a label only (N-terminal biotin on a linker: ado-ado).
Design: key: below the threshold = too weak to quantify, mostly under pKd 3.1 to 4

Row | pKd | Binder
14 | below the threshold | EALLQMESVA [CAVIN3, Q969G5]

What follows are binders tested against GRIP2_3, Q9C0E4 (assay: holdup assay). Conditions: plain residues with an end cap or a label only (N-terminal biotin on a linker: ado-ado).
GRIP2_3, Q9C0E4, sequence (Q9C0E4 238-339): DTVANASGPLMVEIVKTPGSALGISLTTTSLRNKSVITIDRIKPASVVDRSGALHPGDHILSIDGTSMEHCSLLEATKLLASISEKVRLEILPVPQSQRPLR
Design: key: below the threshold = too weak to quantify, mostly under pKd 3.1 to 4

Row | pKd | Binder
15 | below the threshold | EALLQMESVA [CAVIN3, Q969G5]

The binders below were run against T10, HTRA4, P83105 (assay: holdup assay). Conditions: plain residues with an end cap or a label only (N-terminal biotin on a linker: ado-ado).
Design: key: below the threshold = too weak to quantify, mostly under pKd 3.1 to 4

Row | pKd | Binder
16 | below the threshold | EALLQMESVA [CAVIN3, Q969G5]

The binders below were run against T11, GRIP1_7, Q9Y3R0 (assay: holdup assay). Conditions: plain residues with an end cap or a label only (N-terminal biotin on a linker: ado-ado).
Design: key: below the threshold = too weak to quantify, mostly under pKd 3.1 to 4

Row | pKd | Binder
17 | below the threshold | EALLQMESVA [CAVIN3, Q969G5]

Each binder was assayed against T12, ARHGEF11, O15085 (assay: holdup assay). Conditions: plain residues with an end cap or a label only (N-terminal biotin on a linker: ado-ado).
Design: key: below the threshold = too weak to quantify, mostly under pKd 3.1 to 4

Row | pKd | Binder
18 | below the threshold | EALLQMESVA [CAVIN3, Q969G5]

Each binder was assayed against MAST2, Q6P0Q8 (assay: holdup assay). Conditions: plain residues with an end cap or a label only (N-terminal biotin on a linker: ado-ado).
MAST2, Q6P0Q8, sequence (Q6P0Q8 1099-1202): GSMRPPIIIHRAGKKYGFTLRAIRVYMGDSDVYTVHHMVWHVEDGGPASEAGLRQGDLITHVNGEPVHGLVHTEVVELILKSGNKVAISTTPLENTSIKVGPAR
Design: key: below the threshold = too weak to quantify, mostly under pKd 3.1 to 4

Row | pKd | Binder
19 | below the threshold | EALLQMESVA [CAVIN3, Q969G5]

Each binder was assayed against DLG5_1, Q8TDM6 (assay: holdup assay). Conditions: plain residues with an end cap or a label only (N-terminal biotin on a linker: ado-ado).
DLG5_1, Q8TDM6, sequence (Q8TDM6 617-713): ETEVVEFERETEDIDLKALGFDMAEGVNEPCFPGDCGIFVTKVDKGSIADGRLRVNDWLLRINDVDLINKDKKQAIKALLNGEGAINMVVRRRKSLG
Design: key: below the threshold = too weak to quantify, mostly under pKd 3.1 to 4

Row | pKd | Binder
20 | below the threshold | EALLQMESVA [CAVIN3, Q969G5]

Each binder was assayed against GOPC, Q9HD26 (assay: holdup assay). Conditions: plain residues with an end cap or a label only (N-terminal biotin on a linker: ado-ado).
Design: key: below the threshold = too weak to quantify, mostly under pKd 3.1 to 4

Row | pKd | Binder
21 | below the threshold | EALLQMESVA [CAVIN3, Q969G5]

Each binder was assayed against TJP1_2, Q07157 (assay: holdup assay). Conditions: plain residues with an end cap or a label only (N-terminal biotin on a linker: ado-ado).
TJP1_2, Q07157, sequence (Q07157 181-274): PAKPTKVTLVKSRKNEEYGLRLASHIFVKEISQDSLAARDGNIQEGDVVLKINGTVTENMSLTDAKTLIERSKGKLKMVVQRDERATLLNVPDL
Design: key: below the threshold = too weak to quantify, mostly under pKd 3.1 to 4

Row | pKd | Binder
22 | below the threshold | EALLQMESVA [CAVIN3, Q969G5]

What follows are binders tested against T13, MPP2, Q14168 (assay: holdup assay). Conditions: plain residues with an end cap or a label only (N-terminal biotin on a linker: ado-ado).
Design: key: below the threshold = too weak to quantify, mostly under pKd 3.1 to 4

Row | pKd | Binder
23 | below the threshold | EALLQMESVA [CAVIN3, Q969G5]

Each binder was assayed against T14, MPP7, Q5T2T1 (assay: holdup assay). Conditions: plain residues with an end cap or a label only (N-terminal biotin on a linker: ado-ado).
Design: key: below the threshold = too weak to quantify, mostly under pKd 3.1 to 4

Row | pKd | Binder
24 | below the threshold | EALLQMESVA [CAVIN3, Q969G5]

Source: publication PMC9482650, “Quantitative fragmentomics allow affinity mapping of interactomes” (Nature Communications, 2022)
